Patent US20230025732A1 (INNATE PHARMA, published 2023)

Experiments:
[1] = molecular target: T1, Human CD39-L4, also known as NTPDase5 or ENTPD5 (human, UniProt O75356 25-428); test: ELISA on coated recombinant human CD39-L4, panel huCD39 L4; no legend on the sheet, curve is I-394 by paragraph 85
T1 construct: Recombinant protein coated in ELISA
T1 sequence: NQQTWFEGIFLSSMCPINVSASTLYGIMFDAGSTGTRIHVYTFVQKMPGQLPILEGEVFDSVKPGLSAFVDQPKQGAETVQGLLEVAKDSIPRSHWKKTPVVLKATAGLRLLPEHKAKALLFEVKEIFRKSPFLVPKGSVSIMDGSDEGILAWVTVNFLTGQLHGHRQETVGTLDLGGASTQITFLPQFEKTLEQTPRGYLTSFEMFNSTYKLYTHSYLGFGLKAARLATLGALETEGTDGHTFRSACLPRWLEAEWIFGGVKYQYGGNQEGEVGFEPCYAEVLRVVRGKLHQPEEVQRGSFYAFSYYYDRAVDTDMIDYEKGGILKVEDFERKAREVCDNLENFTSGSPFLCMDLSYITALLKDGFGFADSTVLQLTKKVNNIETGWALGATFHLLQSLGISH
Procedure: Wells were washed in TBS Tween 20, and further saturated 2H at RT in TBS Blocking buffer. Dose range concentration of primary antibody was incubated in TBS blocking buffer for 2 h at RT. Wells were washed in TBS Tween 20. […] Optical density was measured on Enspire™ at OD=450.

[2] = molecular target: T2, human CD39 expressed at the cell surface (human, UniProt P49961 1-510); test: flow cytometry titration on Ramos lymphoma cells (Mean of Fluorescence), panels L0, L1 and L1*
T2 construct: On CHO transfectants, Hek-293T transfectants, Ramos and Mino tumor cells; also called huCD39; CHO-huCD39
T2 sequence: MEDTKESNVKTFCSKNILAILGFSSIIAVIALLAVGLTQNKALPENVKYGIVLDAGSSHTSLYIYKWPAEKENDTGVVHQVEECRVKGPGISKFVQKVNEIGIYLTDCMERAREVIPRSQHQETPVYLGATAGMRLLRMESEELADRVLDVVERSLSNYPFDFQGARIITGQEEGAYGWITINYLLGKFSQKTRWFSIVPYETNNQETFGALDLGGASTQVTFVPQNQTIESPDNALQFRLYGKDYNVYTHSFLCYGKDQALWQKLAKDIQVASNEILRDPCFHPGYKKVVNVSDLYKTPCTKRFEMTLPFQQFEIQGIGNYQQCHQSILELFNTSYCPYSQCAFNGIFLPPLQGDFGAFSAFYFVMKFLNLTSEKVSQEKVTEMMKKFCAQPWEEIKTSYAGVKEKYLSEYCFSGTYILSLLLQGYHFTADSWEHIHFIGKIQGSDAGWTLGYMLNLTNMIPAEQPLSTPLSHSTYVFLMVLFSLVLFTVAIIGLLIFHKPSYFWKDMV

murine CD39 on CHO cells = molecular target: T3, murine CD39 on CHO cells (murine, UniProt P55772 1-510); test: flow cytometry titration on CHO cells expressing murine CD39 (Mediane of Fluo), panel CHO-moCD39
T3 construct: whole, on cells; also called CHO-moCD39; moCD39
T3 sequence (looked up): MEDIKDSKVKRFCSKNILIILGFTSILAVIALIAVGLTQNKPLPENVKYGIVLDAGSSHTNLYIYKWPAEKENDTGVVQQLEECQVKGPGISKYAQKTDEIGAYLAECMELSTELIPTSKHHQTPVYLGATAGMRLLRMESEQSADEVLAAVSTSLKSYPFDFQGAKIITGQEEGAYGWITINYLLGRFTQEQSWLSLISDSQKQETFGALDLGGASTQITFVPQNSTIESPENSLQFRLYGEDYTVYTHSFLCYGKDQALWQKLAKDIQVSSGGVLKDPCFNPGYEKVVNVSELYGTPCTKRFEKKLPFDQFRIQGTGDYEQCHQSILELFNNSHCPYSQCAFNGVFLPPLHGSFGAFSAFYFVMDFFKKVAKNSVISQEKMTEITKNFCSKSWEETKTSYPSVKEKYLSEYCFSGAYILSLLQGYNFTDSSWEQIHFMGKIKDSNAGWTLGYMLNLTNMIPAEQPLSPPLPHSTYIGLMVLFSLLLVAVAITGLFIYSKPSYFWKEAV
Procedure: (§1) Cells were incubated with various concentration of unlabeled anti-CD39 antibody from 30 μg/ml to 5×10⁻⁴ μg/ml, for 30 minutes at 4° C. After washes, cells were incubated with Goat anti-mouse H+L labeled secondary antibody for 30 min at 4° C.

[3] = molecular target: T4, cynomolgus (Macaca fascicularis) CD39 on CHO cells (cynomolgus (Macaca fascicularis), UniProt A0A7N9DGH8 1-510); test: flow cytometry titration on CHO cells expressing cynomolgus CD39 (Mediane of Fluo), panel CHO-cyCD39
T4 construct: whole, on cells; also called CHO-cyCD39; cyCD39
T4 sequence: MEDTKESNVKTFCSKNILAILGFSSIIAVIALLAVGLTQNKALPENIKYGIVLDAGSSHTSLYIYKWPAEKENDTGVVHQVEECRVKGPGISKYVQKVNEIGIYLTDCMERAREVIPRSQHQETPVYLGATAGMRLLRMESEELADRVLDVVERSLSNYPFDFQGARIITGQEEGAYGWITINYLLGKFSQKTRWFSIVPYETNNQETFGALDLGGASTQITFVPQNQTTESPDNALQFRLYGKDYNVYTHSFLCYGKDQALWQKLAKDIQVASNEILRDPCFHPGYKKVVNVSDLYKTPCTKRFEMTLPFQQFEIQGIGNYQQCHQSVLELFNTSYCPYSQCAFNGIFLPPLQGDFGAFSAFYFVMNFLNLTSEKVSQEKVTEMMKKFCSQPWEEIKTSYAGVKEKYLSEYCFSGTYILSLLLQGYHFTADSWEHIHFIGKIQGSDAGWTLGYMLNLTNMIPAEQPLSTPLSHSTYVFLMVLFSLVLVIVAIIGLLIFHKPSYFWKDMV
Procedure: as §1

[4] = molecular target: T2, human CD39 expressed at the cell surface; test: flow cytometry titration on CHO cells expressing human CD39 (Mediane of Fluo), panel CHO-huCD39
Procedure: as §1

B1: I-394 (antibody, human IgG1, V domains shown)
VH: EVQLQQSGPELVKPGASVKMSCKASGYTFTDYNMHWVKQSHGRTLEWIGYIVPLNGGSTFNQKFKGRATLTVNTSSRTAYMELRSLTSEDSAAYYCARGGTRFAYWGQGTLVTVSA
VL: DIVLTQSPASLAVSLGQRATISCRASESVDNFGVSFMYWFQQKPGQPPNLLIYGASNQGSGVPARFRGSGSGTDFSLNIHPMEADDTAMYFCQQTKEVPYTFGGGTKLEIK
[1]
  binding result: no binding (tested: about 50 µg/ml)
[2]
  EC50 (read off the curve): ~0.5 µg/mL
Murine CD39 on CHO cells
  binding result: no binding (tested: about 30 µg/ml)
[3]
  EC50 (read off the curve): ~0.4 µg/mL
[4]
  EC50 (read off the curve): ~0.2 µg/mL
